Target: Recombinant human MATα1 (human, UniProt Q00266 1-395)
Assay: pull-down

Recombinant human MATα1, sequence (Q00266 whole entry): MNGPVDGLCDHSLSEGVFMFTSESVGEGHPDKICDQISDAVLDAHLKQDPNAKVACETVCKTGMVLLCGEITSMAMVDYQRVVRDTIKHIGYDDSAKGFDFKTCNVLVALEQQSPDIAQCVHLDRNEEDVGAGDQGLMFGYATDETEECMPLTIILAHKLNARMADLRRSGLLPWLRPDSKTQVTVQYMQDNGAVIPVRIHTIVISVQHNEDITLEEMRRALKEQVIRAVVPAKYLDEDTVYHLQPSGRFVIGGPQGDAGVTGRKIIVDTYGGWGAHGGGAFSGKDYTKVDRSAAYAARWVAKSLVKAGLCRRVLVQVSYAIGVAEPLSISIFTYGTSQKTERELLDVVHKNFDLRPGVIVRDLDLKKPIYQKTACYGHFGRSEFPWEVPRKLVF

B1: Recombinant human PHB1 (natural protein, UniProt P35232 1-272, looked up)
chain: MAAKVFESIGKFGLALAVAGGVVNSALYNVDAGHRAVIFDRFRGVQDIVVGEGTHFLIPWVQKPIIFDCRSRPRNVPVITGSKDLQNVNITLRILFRPVASQLPRIFTSIGEDYDERVLPSITTEILKSVVARFDAGELITQRELVSRQVSDDLTERAATFGLILDDVSLTHLTFGKEFTEAVEAKQVAQQEAERARFVVEKAEQQKKAAIISAEGDSKAAELIANSLATAGDGLIELRKLEAAEDIAYQLSRSRNITYLPAGQSVLLQLPQ
binding result: binds
